From a protein production outcome set (Wang et al. 2014)

Experiment: label from the status in PepcDB records

Sequence	protein production
MRGSVPSVREIETLLSQLPWRQFQSPRVHLEQYTTPVHLAARIAHHVALCIDEDERRSVQAVDLGTGTGILALALCLAGLNHVLGVDVDSEALELARANAAALWELCPQSVGAVLEFAAVDVQPNSLALAPKSFDVAVLNPPFGTRQRSADIAFLDVACHLSRRFVYSLHKSSTRSYLSRRLERFGCTAQVYARLRFDLPATYVFHRERAVDIDVDLWQIEVKR	not failed
MRGYYDEISFDVNTTAKKMHLFLMRSIASYDVTPEQWSVLEGIEANEPISQKEIALWTKKDTPTVNRIVDVLLRKELIVREISTEDRRISLLSLTDKGRKETTELRDIVEASCEKMFAGVTRTDLEQFTAILKNISTNIE	not failed
MRIAILGGGVAGSTLAYLLSRINYEVTIFDINQHYVKPCGDIVPNIYTPPFNWKETFGIRRFSFYIDGEKIYDVEYRHTKWLVIDKWKWINDMRKSSKVIVTHDNNAKEFDYVIDSRGPYPMDREVVYTTRAIIETEEFDDEAILEFNTRYTGFYWIFPSKENEYNIGAGFLEYKNSKELLNYYLRKRFKNFEVKDIRGAPISIGSVKNKKLRIGEARGLVFPLSGEGIRPSAISAEYAFEAIHKEKDLDGFLNEKLSIIEKRIKIQKMLLDLYRYSSLNLRKTFMRIFFKNEVLIDTYLEDKMDLNGIIESLKSVRANGGIIRKFEEQERLEHHHHHH	failed
MRIDAHHHLWDLSVRDQPWTSDVPALRRTFTAAELRPALERNAIDATVVVQTIAVPQETPELLALTCTDPQVRAVVGWTDLTEPGIADRLAELREQPGGSALVGIRHGIQDETDPQWPARPEVRRGITSVAAAGLVYDLLVRPDQLPSAVRAVRELPDVRFVLDHAGNPVVSPDGLVSWTALLTDLAECPNVTVKLSGLVTRTGGDPAAALRPYADVLFETMGPDRLMYGSDWPVCLLAAEYDEVVAVAESLTEELSADEREAVFGTTAARWYGIPS	failed
MRIETDRLVIRDFEERDAERLYDYLANPPVRCFLDEKINSYDEALRKIRERQGQSDQGDFYAVCLKNAEWLIGEVFWVKEEPDTYSIGWNFNLNYGGKGYATEAVKAAIEELFRGGARRIYAYVEEDNLPSQRLCDRLGMRREGLFLEFISFINNPDGSPRYENTYQYAILKREWLGEGKAT	failed
MRIFKALLKMEFLLTKRQLANLIMAIGMPVAFFLFFSGFMGEGLTKAIEAIYVRNYMITMAGFSSLSFAFFTFPFSMKDDQLSNRMQLLRHSPVPMWQYYLAKIIRILFYYCLAITVVFLTGHILRQVSMPIEQWMQSFLLLLGGATCFIPFGLLVSYFKNTELMSMVANICYMSLAVLGGMWMPITMFPKWLQALSKLTPTYHLTQVILSPFANSFAGFSLIILIGYGIIMLVIAYLLSQKRHSI	failed
MRIKLIIVEGKTDESFFKVLLEKLYGFREAKKLTPEFPIGKWGFRIGEHPLVLEKDNIALVIIHAEGKQRIPKVLKSVLDSVKLGLLNVEEVYVVRDVDEGNDVFEWVLSFLREREVRVDNGAIVTEGVKIYPYGMGNLTLNEPFVKEKKELELSLAYLAKLDGILEKYRGSMRALSQDKGDKLTPKDVMHILSIANDYTGDCLSGLYEKYIGIMIHRNRELLIRFLSEVNLLPLLERMVG	not failed
MRILFVGPPLYGLLYPVLSLAQAFRVNGHEVLIASGGKFAQKAAEAGLVVFDAAPGFDSEAGYRRQEALRKENNIGTKMGNFSFFSEEMTDPLVAFAGQWRPDLIVYPPLGVVGPLIAAKYDIPVVMQTVGFGHTPWHIKGVTKSLSNAYRRHGVSAPPRDLAWIDVTPPSMSILQNDGEPVISMQYVPYNGGAVWEEWWERTPDRKRLLVSLGTVKPMVDGLDLISWVMDSAGEVDAEIILHLPANARSDLRSLPPNVRLVDWLPMGVFLNGADGFIHHGGAGNTLTALHAGIPQIVFGQGADRPVNARAVVERGCGIIPGKSGLTSSMINTFLGNRALREASQEVAAEMAAQPCPTEVAKKLIAMLQHG	failed
MRILLATDGSPQARGAEALAEWLAYKLSAPLTVLFVVDTRLARIPELLDFGALTVPVPVLRTELERALALRGEAVLERVRQSALAAGVAVEAVLEEGVPHEAILRRARAADLLVLGRSGEAHGDGFGGLGSTADRVLRASPVPVLLAPGEPVELEGALLGYDASESAVRALHALAPLARALGLGVRVVSVHEDPARAEAWALEAEAYLRDHGVEASALVLGGDAADHLLRLQGPGDLLALGAPVRRLVFGSTAERVIRNAQGPVLTAR	failed
MRILSIIRIIGILVMCFSGTMLVPAFVALIYGDGGGKAFMQAFMLSLIAGTLLWWPCHHHKQELRSRDGFLIVVAFWLVLGSLATLPLLLFDSPHLTIASAVFEAFSGLTTTGATVMTGLDNLPKSILFYRQFLQWLGGMGIIVLAVAIIPLLGIGGTQLYRAESSGPLKDQKSLPKISEVAKALWIIYASLTVLCAIAYWLSGMNLFDAIGHSFSTISNGGFSTHDASIGYFNQASIYWVTTIFMLIGGVNFSLHISAFLALGKRNIWRNYWKDPEFRFFLTMQIIFIGIVSLSLYGYGLVSDINEAVTKGALQLTSMSMTAGYTIFDIDNLPPFIGLLLVISAVIGGCGGSTTGGLKAIRTLILWKQIDRELHSLIHPNLVQPIRIGKNRLAPRMIESIWAFFIIFILVYWGCVFAVILCGMNTFDAMGAVFATLTNAGPGLGFIHESFIGVPESAKLVFSFAMICGRLEMFSLIVLFIPSYWKK	failed
MRISAKKPRPRPIFALCAPYPEAQPQEAEVRVRTSILAFVLAAVSTIAGAQDSGLTSLETTDAGRSWLAVGRLDIDGTGFCTGALIAPDLVLTAAHCLYDKTTGQRIDPARIEFLAGWRRGRASAYRRVARAVHHPDYLYEGAVTAERVRNDLALLKLSQPIRNTTVVPFETGNRPMRGDAVQVVSYAHDRAEAPSLQEACAVMARQQGVLVMSCDVDFGASGSPVFSLSDSTPRIVSVVSAKAEVDGARVALGTSLDDTLTFLMGELDSHKRAEIPTVPRVNRLSASGQGSASGAKFVRP	failed
MRITVMTAGEQIITLDVDSQETVENVKALLEVESNVPIQQQQLLYNGNEMGNSDKLSALGVKDDDLLMMMVSNASSGSATSAAGNDLGMNPDGSALNPAAFQQHIRGDSNLMGQLFQNDPELAQVISGSDLNKLQDVLRARHRQRSVLQRQKEEELALLYADPFDVEAQRKIEAAIRQKGIDENWEAALEHNPEGFARVIMLYVDMEVNGVPLKAFVDSGAQSTIISKSCAERCGLLRLMDQRYKGIAHGVGQTEILGRIHVAPIKIGNNFYPCSFVVLDSPNMEFLFGLDMLRKHQCTIDLKENVMTVGGGEVSVPFLQEKDIPSRFLDEERVPNDASSSGATVPSGFTEKKNNTVANPTSQQPKRQNTSEGPEFEAKIAKLVELGFSRDSVIQALKLFEGNEEQAAGFLFGG	failed
MRIYLFLNKNYKIFILFLILILNSKLAYSQRLIRIGKEEMKNKNYIQAIETLSDAIKKYPKVQLGYYFLSIAYRENNQLTEAEGALLDGIAVGGEIDYILYYELGNIMFNRGEGYYPLAIKYYSNSIKSRPNYDSALLNRANAYVQQGKITSKEKEYQKAWDSYTMAIHDYSQFITLRSKTEKKDSILLIISYLRNEKINLEQLDKSLKGRTEHIVYAKEDKNQILKDSFKDNLETNSLIELEKLNWQEELYIDE	failed
MRIYLIGFMCSGKSTVGSLLSRSLNIPFYDVDEEVQKREGLSIPQIFEKKGEAYFRKLEFEVLKDLSEKENVVISTGGGLGANEEALNFMKSRGTTVFIDIPFEVFLERCKDSKERPLLKRPLDEIKNLFEERRKIYSKADIKVKGEKPPEEVVKEILLSLEGNALGG	not failed
MRKDETSNTSPDISAAQPASALRYHLRPPRRNDGAAIHQLVSECPPLDLNSLYAYLLLCEHHAHTCVVAESPGGRIDGFVSAYLLPTRPDVLFVWQVAVHSRARGHRLGRAMLGHILERQECRHVRHLETTVGPDNQASRRTFAGLAGERGAHVSEQPFFDRQAFGGADHDDEMLLRIGPFTHPPH	failed
MRKELCRNFQRGSCRYGENCRFLHPQQAKPNNPFGFGTQNQQQQQQQQQQNSSNPFGFGVQSGGSSRPNQFQNTWSRTASTPTGGGAAASTQQTGKQTQPADHKCTDPAACKRVMQDDFKNERPMWKLTCYGHWKYFPCDVTGDISYEELRAVAYEEAKRGIPLQSIVERERNLQNSKIAEFENFLRNPYKGSVTANQSPFAATTPSIFPQSSQINSPSPAFSGFNQQTAFSNTNAGGLSSSGPPNAFASFNQQTTFPNTNAGGVSSSGPPNPFASFTQQSNNQQTAFSNTNAGGLSSSGPPNAFASFNKQPNAFSVNTPQPVPSGPSGFQTNPSTTFKPASFGPGPGFATTPQNNNIFGQSTPTPATNTSQNNQTAFNFNVPVASFTAPAINTTNTSSGTELQIGGDPVDSSIWLKEKWNPGEIPEQAPPDAFV	failed
MRKFIISFCCYVFFIFTLAAQDKAPHYTVIVSLDAFRWDYPAMYDTPNLNQMAREGVKATMLPSYPASTFPNHYTLATGLVPDHNGIINNTFWDVKRRRQYSMGDPATRNNPDYYLGEPIWITAQKQGVKTGNVYWVGSDIAIKGGYPTYYREYAEKPRLTFEQRVDSTIALLEKPEAERPRLVMLYFEEPDGVTHHHGPRSVEAAAIIHRMDSLVGMLRQGIASLPFGKDVNLIVTADHGMTEISDDRVVDMNKYLRPEWCEAVDGRTPTSIFTKPEYRDSVYNALKDVPHIHVWKKEEIPAELNYGSSDRIGDIVVAPELGWQFTDVPRALKGAHGYFPQSPDMQVMFRACGPDFKAGYESKGFVNVDIYPLLAHLLKITPEKTDGQFERIKDILKDVSFLEHHHHHH	failed
MRKFILYWALYGLIELIMYVWLFQVIGFWPLLFIQIASSAFGVFIFKRLGGNLFRNLRDGRTVAPYLLDSLCFFIAGFLLIIPGVITTILGLLIFIPFSRKLLKPKLTKWLGNQKKHTQYYYFDM	failed
MRKGLIRNGSYSILLVIYRWFCWAIVLIGIIPVNGVISLAYAATPADWNKGAYAYSAEQTPLSAILADFANSHGVDLVLGNIADNEVTAKIRADNPTLFLDRLALEHRFQWFVYNNALYVSPQDEQASVRLEISPDAAPDIKQALSGIGLIDSRFGWGELPEEGVVLVTGPKAYIDLIRNFSQQREKQDERRKVMIFPLRYASVSDRTLQYRDQKITIPGVATILNELMDGQRAAPAGASGPMPVQPDTGMEAMRDSTRSLMTRLATRTSPGRSGEASSRVTLSGKISADVRNNALLIRDDEKRRAEYQQLVEHIDVPQNLVNIDAIILDVDRTALSRLEANWQAQLGNVSAGSTMMMGRSTLFVSDFKRFFADIQALEGEGTASIVANPSVLTLENQPAIVDFSRTAFITATGERVADIQPVTAGTSLQVTPRVIGEGAQRSIQLVIDIEDGQVETGREGEASGVKRGTVSTQALIGENRALVLGGFHVEESGDRDRRIPILGDIPLLGKLFTSTRHEVSRRERLFILTPHLVGDQTDPTRYVSSVNRQQLNGAMNRVAQRNGKTDLYSLIEGAFRDLASRQLPAGFQADSKGARLGEVCRSQSGLIYDSSRYQWYGNGQVRLSVGVVRNGGTQPQRFDEAACASSRTLAVAVWPKTTLAPGESSEVFLALQPALTAQPTRRNVLISN	failed
MRKISIVIPVYNTEKYLKLSVDSVLSQSYQDWELILVDDGSKDGSGAICDKYASEDSRIKVYHTVNQGVTAARGYGVEQSTGEWICFLDADDTLADDALQVMLGKSADCDIVIGNKRIVSGNDVTEEWMNQDDRQLQAVEFLDGLIRNKISQYITGRIFRRILFDNGTICIPRELIMAEDFIMNVQLGNKAKKIAVIRDMVYGYHVYGESVSHTFRTNLEYESRFCDCLFSALKTGGYYEEVKEAFTFQKVRALKSAFMAQQGRVNLRHPFLQEVRKEAKSIGLSRGWKLFLYLLPLKYIGYIFFRSLNKLEHHHHHH	not failed
MRKITQAISAVCLLFALNSSAVALASSPSPLNPGTNVARLAEQAPIHWVSVAQIENSLAGRPPMAVGFDIDDTVLFSSPGFWRGKKNFSPESEDYLKNPVFWEKMNNGWDEFSIPKEVARQLIDMHVRRGDAIFFVTGRSPTKTETVSKTLADNFHIPATSMNPVIFAGDKPGQNTKSQWLQDKNIRIFYGDSDNDITAARDVGARGIRILRASNSTYKPLPQAGAFGEEVIVNSEY	failed
